Source: the supplement of paper PMC10567573

B1: TRIM43 (parent)
chain: NNSWIRKNSTMVNSEDIFLLLCLK
B2: PKD2L1 (parent)
chain: TLARCAKDILGFAVMFFIVFFAYA

Variants of: B1
Assay: protein stability index of a GFP-peptide fusion (GPS, HEK-293T) (PSI 1-6); higher = more stable
Conditions: c terminus: a fixed tail appended
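Further: lentivirally expressed fusions sorted by FACS into six bins by GFP to DsRed ratio, PSI derived from sequencing read proportions per bin multiplied by bin number.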

| Variant | protein stability index |
| --- | --- |
| NFSWIRKNSTMVNSEDIFLLLCLK [N2F] | 3.5 |
| NCSWIRKNSTMVNSEDIFLLLCLK [N2C] | 2.89 |
| NWSWIRKNSTMVNSEDIFLLLCLK [N2W] | 2.65 |
| NESWIRKNSTMVNSEDIFLLLCLK [N2E] | 3.2 |
| NVSWIRKNSTMVNSEDIFLLLCLK [N2V] | 2.46 |
| NPSWIRKNSTMVNSEDIFLLLCLK [N2P] | 2.24 |
| NHSWIRKNSTMVNSEDIFLLLCLK [N2H] | 2.3 |
| NQSWIRKNSTMVNSEDIFLLLCLK [N2Q] | 2.59 |
| NMSWIRKNSTMVNSEDIFLLLCLK [N2M] | 3.25 |
| NYSWIRKNSTMVNSEDIFLLLCLK [N2Y] | 3.58 |
| NTSWIRKNSTMVNSEDIFLLLCLK [N2T] | 2.14 |
| NRSWIRKNSTMVNSEDIFLLLCLK [N2R] | 2.93 |
| NDSWIRKNSTMVNSEDIFLLLCLK [N2D] | 1.88 |
| NISWIRKNSTMVNSEDIFLLLCLK [N2I] | 2.32 |
| NLSWIRKNSTMVNSEDIFLLLCLK [N2L] | 2.46 |
| NGSWIRKNSTMVNSEDIFLLLCLK [N2G] | 3.56 |
| NSSWIRKNSTMVNSEDIFLLLCLK [N2S] | 2.48 |
| NNSWMRKNSTMVNSEDIFLLLCLK [I5M] | 2.4 |
| NNSWFRKNSTMVNSEDIFLLLCLK [I5F] | 2.91 |
| NNSWCRKNSTMVNSEDIFLLLCLK [I5C] | 2.8 |
| NNSWHRKNSTMVNSEDIFLLLCLK [I5H] | 3.14 |
| NNSWARKNSTMVNSEDIFLLLCLK [I5A] | 2.47 |
| NNSWLRKNSTMVNSEDIFLLLCLK [I5L] | 2.8 |
| NNSWDRKNSTMVNSEDIFLLLCLK [I5D] | 2.61 |
| NNSWKRKNSTMVNSEDIFLLLCLK [I5K] | 3.55 |
| NNSWERKNSTMVNSEDIFLLLCLK [I5E] | 3.23 |
| NNSCIRKNSTMVNSEDIFLLLCLK [W4C] | 3.11 |

| Variant | protein stability index |
| --- | --- |
| NNSDIRKNSTMVNSEDIFLLLCLK [W4D] | 2.64 |
| NNSGIRKNSTMVNSEDIFLLLCLK [W4G] | 2.06 |
| NNSAIRKNSTMVNSEDIFLLLCLK [W4A] | 1.55 |
| NNSKIRKNSTMVNSEDIFLLLCLK [W4K] | 2.72 |
| NNSTIRKNSTMVNSEDIFLLLCLK [W4T] | 2.88 |
| NNSNIRKNSTMVNSEDIFLLLCLK [W4N] | 2.4 |
| NNSLIRKNSTMVNSEDIFLLLCLK [W4L] | 1.6 |
| NNSHIRKNSTMVNSEDIFLLLCLK [W4H] | 3 |
| NNSFIRKNSTMVNSEDIFLLLCLK [W4F] | 2.91 |
| NNSRIRKNSTMVNSEDIFLLLCLK [W4R] | 3.35 |
| NNSIIRKNSTMVNSEDIFLLLCLK [W4I] | 1.99 |
| NNSQIRKNSTMVNSEDIFLLLCLK [W4Q] | 2.62 |
| NNSVIRKNSTMVNSEDIFLLLCLK [W4V] | 3 |
| NNSYIRKNSTMVNSEDIFLLLCLK [W4Y] | 3.95 |
| NNSPIRKNSTMVNSEDIFLLLCLK [W4P] | 2.73 |
| NNSSIRKNSTMVNSEDIFLLLCLK [W4S] | 3.31 |
| NNSMIRKNSTMVNSEDIFLLLCLK [W4M] | 2.59 |
| NNHWIRKNSTMVNSEDIFLLLCLK [S3H] | 2.64 |
| NNVWIRKNSTMVNSEDIFLLLCLK [S3V] | 2.53 |
| NNPWIRKNSTMVNSEDIFLLLCLK [S3P] | 2.4 |
| NNTWIRKNSTMVNSEDIFLLLCLK [S3T] | 4.59 |
| NNCWIRKNSTMVNSEDIFLLLCLK [S3C] | 3.41 |
| NNNWIRKNSTMVNSEDIFLLLCLK [S3N] | 2.48 |
| NNDWIRKNSTMVNSEDIFLLLCLK [S3D] | 2.66 |
| NNWWIRKNSTMVNSEDIFLLLCLK [S3W] | 3.13 |
| NNYWIRKNSTMVNSEDIFLLLCLK [S3Y] | 3.59 |
| NNMWIRKNSTMVNSEDIFLLLCLK [S3M] | 3.38 |

| Variant | protein stability index |
| --- | --- |
| NNEWIRKNSTMVNSEDIFLLLCLK [S3E] | 3.25 |
| NNIWIRKNSTMVNSEDIFLLLCLK [S3I] | 2.78 |
| NNLWIRKNSTMVNSEDIFLLLCLK [S3L] | 2.9 |
| NNFWIRKNSTMVNSEDIFLLLCLK [S3F] | 1.95 |
| NNQWIRKNSTMVNSEDIFLLLCLK [S3Q] | 3.18 |
| NNAWIRKNSTMVNSEDIFLLLCLK [S3A] | 3.59 |
| NNKWIRKNSTMVNSEDIFLLLCLK [S3K] | 2.5 |
| NNRWIRKNSTMVNSEDIFLLLCLK [S3R] | 2.59 |
| INSWIRKNSTMVNSEDIFLLLCLK [N1I] | 2.27 |
| QNSWIRKNSTMVNSEDIFLLLCLK [N1Q] | 2.11 |
| RNSWIRKNSTMVNSEDIFLLLCLK [N1R] | 2.71 |
| LNSWIRKNSTMVNSEDIFLLLCLK [N1L] | 2.47 |
| WNSWIRKNSTMVNSEDIFLLLCLK [N1W] | 2.36 |
| MNSWIRKNSTMVNSEDIFLLLCLK [N1M] | 2.72 |
| GNSWIRKNSTMVNSEDIFLLLCLK [N1G] | 2.73 |
| YNSWIRKNSTMVNSEDIFLLLCLK [N1Y] | 2.79 |
| FNSWIRKNSTMVNSEDIFLLLCLK [N1F] | 3.27 |
| TNSWIRKNSTMVNSEDIFLLLCLK [N1T] | 2.58 |
| HNSWIRKNSTMVNSEDIFLLLCLK [N1H] | 3.28 |
| SNSWIRKNSTMVNSEDIFLLLCLK [N1S] | 2.39 |
| ENSWIRKNSTMVNSEDIFLLLCLK [N1E] | 4.19 |
| ANSWIRKNSTMVNSEDIFLLLCLK [N1A] | 2.72 |
| KNSWIRKNSTMVNSEDIFLLLCLK [N1K] | 3.25 |
| VNSWIRKNSTMVNSEDIFLLLCLK [N1V] | 3.04 |
| DNSWIRKNSTMVNSEDIFLLLCLK [N1D] | 2.27 |

Variants of: B2
Assay: as above
Conditions: c terminus: a fixed tail appended

| Variant | protein stability index |
| --- | --- |
| TLARCEKDILGFAVMFFIVFFAYA [A6E] | 3.58 |
| TLARCFKDILGFAVMFFIVFFAYA [A6F] | 2.64 |
| TLARCGKDILGFAVMFFIVFFAYA [A6G] | 1.59 |
| TLARCKKDILGFAVMFFIVFFAYA [A6K] | 3.02 |
| TLARCNKDILGFAVMFFIVFFAYA [A6N] | 3.44 |
| TLARCAKDILGFAVMFFRVFFAYA [I18R] | 2.18 |
| TLARCAKDILGFAVMFFGVFFAYA [I18G] | 2.09 |
| TLARCAKDILGFAVMFFFVFFAYA [I18F] | 3.16 |
| TLARCAKDILGFAVMFFMVFFAYA [I18M] | 1.49 |
| TLARCAKDILGFAVMFFIVFFAGA [Y23G] | 2.6 |
| TLARCAKDILGFAVMFFIVFFAPA [Y23P] | 2.51 |
| TLARCAKDILGFAVMFFIVFFASA [Y23S] | 2.47 |
| TLARCAKDILGFAVMFFIVFFACA [Y23C] | 3.45 |
| TSARCAKDILGFAVMFFIVFFAYA [L2S] | 2.73 |
| TGARCAKDILGFAVMFFIVFFAYA [L2G] | 3.03 |
